Data taken from patent US20070072186A1, “Methods and agents for screening for compounds capable of modulating her2 expression” (priority 2003, published 2007).

Assays:
[1] = system: capped-5′+3′ UTR-luciferase RNA; test: in vitro rabbit reticulocyte translation of capped reporter RNA in the presence of competitor RNA; type: biochemical; settings: for inhibition of translation of capped-5′+3′ UTR-luciferase RNA relative to absence of competitor RNA: 5-fold molar excess of competitor RNA, 60 minutes at 37° C., FIG. 1
Description: A 73-residue region from a 3′ her2 UTR (SEQ ID NO: 1) and an N-terminal 310-residue region from a 3′ her2 UTR (SEQ ID NO: 5) are cloned into a construct downstream of a T7-promoter. RNA encoded for by these regions is synthesized using a T7-in vitro transcription kit (Ambion, Inc.; Austin, Tex.).
To quantitate the maximum level of translation, a capped-5′+3′ UTR-luciferase RNA (0.057 pmoles) is translated in an in vitro rabbit reticulocyte translation system for 60 minutes at 37° C. Then, a capped-5′+3′ UTR-luciferase RNA is translated in the presence of between a 5- to 500-fold molar excess of RNA from either the 73-residue region from a 3′ her2 UTR (SEQ ID NO: 1) or the N-terminal 310-residue region from a 3′ her2 UTR (SEQ ID NO: 5) under the same conditions.
Capped, in vitro-transcribed Her2 5′ UTR-luciferase-Her2 3′ UTR (5H3H-Luc) and vector only-luciferase (Vector-Luc) are translated in the presence or absence of competitor RNA fragments derived from a Her-2 3′ UTR. Nucleic acid molecules derived from nucleotides 468-540 of a Her2 3′ UTR (468-540) and from residues 468-615 of a Her2 3′ UTR (468-615) each contain the 73-nucleotide sequence (SEQ ID NO:1) essential for suppression of 5′ Her2 UTR repression. […] The percentage of inhibition of expression is less in the presence of the 1-310 fragment with respect to the percentage of inhibition of expression in the presence of either of the nucleic acid molecules containing SEQ ID NO: 1, 468-615 and 468-540. The percentage of inhibition for the 1-310 fragment is dose-dependent, whereas even at only a 5-fold molar excess of competitor RNA conatining SEQ ID NO: 1, expression is only at 25% of the maximum level of translation.

48-kDa polypeptide = test: UV-crosslinking of 32P-labeled RNA with SKBR3 cytoplasmic extracts; type: binding; settings: for competition for binding of the 48-kDa polypeptide to full-length, labeled Her2 3′ UTR: FIG. 10B; for UV-crosslinking of the 48-kDa polypeptide to labeled RNA: SKBR3 cytoplasmic extracts, FIG. 10A
Description: Total protein from cancer cell lines is incubated with 10 fmoles of ^32P-UTP-labeled RNA for 1 hour at 37° C. in a final volume of 20 μl using Binding Buffer (20 mM Hepes-KOH, pH 7.5, 2.5 mM MgCl2, 100 mM KCl, 20% glycerol, 0.5 mM dithiothreitol, protease inhibitor tablets). Reaction mixtures are UV-irradiated at 254 nm for 10 minutes with a StrataLinker® 11800 (Stratagene; La Jolla, Calif.) in Costar® 96-Well Cell Culture Clusters (CORNING COSTAR Co., Cambridge, Mass.) on ice. The reaction mixtures are then treated with RNAse A (2 mg/ml) for 30 minutes at 37° C. The samples are analyzed by 12% or 10-14% Criterion™ gels (Bio-Rad Laboratories, Inc., Hercules, Calif.) by Sodium Dodecyl Sulfate-Polyacrylamide gel electrophoresis (SDS-PAGE) and are detected by autoradiography.
To study the role of trans-acting factors in modulating interactions between 5′ and 3′ UTRs, in vitro transcripts are synthesized, labeled, and incubated with cytoplasmic extracts from SKBR3 cells. After UV-crosslinking, unprotected areas of labeled RNA are digested with RNAse A, and the remaining labeled RNA molecules are resolved on SDS-PAGE.
Instead, a minimal binding region of […], corresponding to the nucleotide sequence from residue 490 to residue 510 of a 3′ Her2 UTR, is essential for the 48-kDa polypeptide to UV-crosslink to a Her2 3′ UTR. […] In comparison, competition with a 500-fold molar excess of nucleic acid molecules with sequences derived from the Her2 5′ UTR is ineffective in titrating out the 48-kDa polypepide.

[2] = system: luciferase reporter gene linked to a 5′ her2 UTR; test: luciferase constructs with 3′ her2 UTR variants transfected into SKBR3 cells; type: cell-based; settings: 48 hours after transfection
Description: A luciferase reporter gene is linked to 3′ her2 UTR variants to make various constructs (see FIG. 6). Each construct is transfected into cell-lines, SKBR3 cells in particular, using Fugene® (Hoffmann-La Roche Inc., Nutley, N.J.), and the luciferase activity is measured 48 hours after transfection. The results are expressed as a fold-increase in luciferase activity over the repression caused by a 5′ her2 UTR (SEQ ID NO: 6) linked to the luciferase reporter gene (see FIG. 6). A 5′ her2 UTR represses translation of a reporter gene, such as luciferase.

Ship-2 uORF = test: chimeric luciferase constructs with Ship-2 5′ UTR in SKBR3 cells; type: cell-based; settings: in combination with a Ship-2 5′ UTR, FIG. 7
Text: Ship-2 mRNA contains a 33 nucleotide uORF (encoding 10 amino acids) that is located 14 nucleotides upstream of the main ORF. The uORF strongly represses translation of the main ORF.
The presence of TRE1 in the 3′ UTR, when in combination with a Ship-2 5′ UTR, increases expression of luciferase about 5-fold relative to luciferase being flanked by 3′ and 5′ Ship-2 UTRs. Luciferase expression increases when flanked by a 5′ Ship-2 UTR and a chimeric 3′ UTR, consisting of 328 residues of Ship-2 3′ UTR flanked by the 5′ and 3′ end seqeunces of the Her-23′ UTR, relative to luciferase being flanked by 3′ and 5′ Ship-2 UTRs. […] The presence of the 3′ Her2 UTR residues 1-110 (SEQ ID NO: 28) in the chimeric 3′ UTR results in a slight increase in luciferase expression relative to 3′ Ship-2 UTR. Suppression of translational repression occurs in cells with chimeric constructs expressing a Ship-2 3′ UTR containing only TRE1 (SEQ ID NO: 1) from a Her-23′ UTR.

[3] = system: luciferase reporter gene linked to a 5′ her2 UTR; test: luciferase reporter constructs with her2 UTRs transfected into a panel of cell lines; type: cell-based; settings: luciferase activity 48 hours after transfection
Description: A luciferase reporter gene is linked to her2 UTRs to make various constructs (see FIG. 2). Each construct is transfected into a panel of cell-lines using Fugene® (Hoffmann-La Roche Inc., Nutley, N.J.), and the luciferase activity is measured 48 hours after transfection. The results are expressed as a fold-increase in luciferase activity over the repression caused by the 5′ her2 UTR linked to the luciferase reporter gene. A 5′ her2 UTR (SEQ ID NO: 6) represses translation of a luciferase reporter gene. […] The greatest modulation is observed in the mammalian cancer cell lines that over-express Her2 protein, SKBR-3 and BT-474, about 13-fold and about 10-fold, respectively, showing that the efficiency of translation of a luciferase reporter gene mRNA in Her2 positive cells is regulated by interactions of regions in the 5′ her2 UTR and the 3′ her2 UTR. Moreover, the effect is more pronounced in high Her2 expressing cells relative to low Her2 expressing cell lines, especially for breast cancer cells.

B1: SEQ ID NO: 5: first 310 nucleotides of the Her2 3′ UTR, does not contain SEQ ID NO: 1; competitor RNA (nucleic acid)
DNA: TGAACCAGAAGGCCAAGTCCGCAGAAGCCCTGATGTGTCCTCAGGGAGCAGGGAAGGCCTGACTTCTGCTGGCATCAAGAGGTGGGAGGGCCCTCCGACCACTTCCAGGGGAACCTGCCATGCCAGGAACCTGTCCTAAGGAACCTTCCTTCCTGCTTGAGTTCCCAGATGGCTGGAAGGGGTCCAGCCTCGTTGGAAGAGGAACAGCACTGGGGAGTCTTTGTGGATTCTGAGGCCCTGCCCAATGAGACTCTAGGGTCCAGTGGATGCCACAGCCCAGCTTGGCCCTTTCCTTCCAGATCCTGGGTAC
[1]
  inhibition of translation of capped-5′+3′ UTR-luciferase RNA relative to absence of competitor RNA: not significantly inhibited
[1]; competitor RNA, FIG. 9
  percentage of inhibition of expression, dependence on amount of competitor: dose-dependent

B2: Her2 5′ UTR: naturally occurring Her2 5′ UTR; RNA probe and competitor in UV-crosslinking (nucleic acid)
DNA: GGCTGCTTGAGGAAGTATAAGAATGAAGTTGTGAAGCTGAGATTCCCCTCCATTGGGACCGGAGAAACCAGGGGAGCCCCCCGGGCAGCCGCGCGCCCCTTCCCACGGGGCCCTTTACTGCGCCGCGCGCCCGGCCCCCACCCCTCGCAGCACCCCGCGCCCCGCGCCCTCCCAGCCGGGTCCAGCCGGAGCCATGGGGCCGGAGCCGCAGTGAGCACC
48-kDa polypeptide; 500-fold molar excess of competitor
  competition for binding of the 48-kDa polypeptide to full-length, labeled Her2 3′ UTR: ineffective
48-kDa polypeptide
  UV-crosslinking of the 48-kDa polypeptide to labeled RNA: does not crosslink

B3: SEQ ID NO: 29: Her2 3′ UTR variant with nucleotides 1-110 deleted at the 5′ end, in a luciferase construct (nucleic acid)
DNA: CCTGCCATGCCAGGAACCTGTCCTAAGGAACCTTCCTTCCTGCTTGAGTTCCCAGATGGCTGGAAGGGGTCCAGCCTCGTTGGAAGAGGAACAGCACTGGGGAGTCTTTGTGGATTCTGAGGCCCTGCCCAATGAGACTCTAGGGTCCAGTGGATGCCACAGCCCAGCTTGGCCCTTTCCTTCCAGATCCTGGGTACTGAAAGCCTTAGGGAAGCTGGCCTGAGAGGGGAAGCGGCCCTAAGGGAGTGTCTAAGAACAAAAGCGACCCATTCAGAGACTGTCCCTGAAACCTAGTACTGCCCCCCATGAGGAAGGAACAGCAATGGTGTCAGTATCCAGGCTTTGTACAGAGTGCTTTTCTGTTTAGTTTTTACTTTTTTTGTTTTGTTTTTTTAAAGACGAAATAAAGACCCAGGGGAGAATGGGTGTTGTATGGGGAGGCAAGTGTGGGGGGTCCTTCTCCACACCCACTTTGTCCATTTGCAAATATATTTTGGAAAAC
modifications: luciferase construct
notes: Her2 3′ UTR variant with nucleotides 1-110 deleted at the 5′ end, in a luciferase construct
[2]
  fold-increase in luciferase expression over 5′ her2 UTR+Luc: 1.7±0.9 fold

B4: SEQ ID NO: 1: 73-residue region (residues 468-540) from a 3′ her2 UTR, translational regulatory element TRE1; used as competitor RNA (nucleic acid)
DNA: CTTTTCTGTTTAGTTTTTACTTTTTTTGTTTTGTTTTTTTAAAGACGAAATAAAGACCCAGGGGAGAATGGGT
modifications: competitor RNA from UTR region, further chemistry not given here
Ship-2 uORF
  increase of luciferase expression relative to luciferase flanked by 3′ and 5′ Ship-2 UTRs: about 5 fold
[1]
  inhibition of translation of capped-5′+3′ UTR-luciferase RNA relative to absence of competitor RNA: about 75%
48-kDa polypeptide; 50-fold molar excess of unlabeled competitor
  competition for binding of the 48-kDa polypeptide to full-length, labeled Her2 3′ UTR: prevents binding
48-kDa polypeptide
  UV-crosslinking of the 48-kDa polypeptide to labeled RNA: crosslinks

B5: 3′ her2 UTR: naturally occurring Her2 3′ UTR, linked downstream of luciferase in reporter constructs (nucleic acid)
DNA: TGAACCAGAAGGCCAAGTCCGCAGAAGCCCTGATGTGTCCTCAGGGAGCAGGGAAGGCCTGACTTCTGCTGGCATCAAGAGGTGGGAGGGCCCTCCGACCACTTCCAGGGGAACCTGCCATGCCAGGAACCTGTCCTAAGGAACCTTCCTTCCTGCTTGAGTTCCCAGATGGCTGGAAGGGGTCCAGCCTCGTTGGAAGAGGAACAGCACTGGGGAGTCTTTGTGGATTCTGAGGCCCTGCCCAATGAGACTCTAGGGTCCAGTGGATGCCACAGCCCAGCTTGGCCCTTTCCTTCCAGATCCTGGGTACTGAAAGCCTTAGGGAAGCTGGCCTGAGAGGGGAAGCGGCCCTAAGGGAGTGTCTAAGAACAAAAGCGACCCATTCAGAGACTGTCCCTGAAACCTAGTACTGCCCCCCATGAGGAAGGAACAGCAATGGTGTCAGTATCCAGGCTTTGTACAGAGTGCTTTTCTGTTTAGTTTTTACTTTTTTTGTTTTGTTTTTTTAAAGACGAAATAAAGACCCAGGGGAGAATGGGTGTTGTATGGGGAGGCAAGTGTGGGGGGTCCTTCTCCACACCCACTTTGTCCATTTGCAAATATATTTTGGAAAAC
[3]; 293T
  Fold-increase over 5′ UTR Average: 1.54 ± 1.0
[3]; HeLa
  Fold-increase over 5′ UTR Average: 2.23 ± 0.5
[3]; Hs578.1
  Fold-increase over 5′ UTR Average: 2 ± 0.5
48-kDa polypeptide
  UV-crosslinking of the 48-kDa polypeptide to labeled RNA: crosslinks
